Measurements taken from PMC2813881, “The Mrs1 Splicing Factor Binds the bI3 Group I Intron at Each of Two Tetraloop-Receptor Motifs”.

Assays:
Mrs1 [1] = target: T1, Mrs1 (yeast, UniProt P07266 1-363); experiment: filter binding; settings: RNA folded in its own buffer (composition not given), 30 min at 37 C with Mrs1, SL and B5 at 8 mM MgCl2
T1 sequence: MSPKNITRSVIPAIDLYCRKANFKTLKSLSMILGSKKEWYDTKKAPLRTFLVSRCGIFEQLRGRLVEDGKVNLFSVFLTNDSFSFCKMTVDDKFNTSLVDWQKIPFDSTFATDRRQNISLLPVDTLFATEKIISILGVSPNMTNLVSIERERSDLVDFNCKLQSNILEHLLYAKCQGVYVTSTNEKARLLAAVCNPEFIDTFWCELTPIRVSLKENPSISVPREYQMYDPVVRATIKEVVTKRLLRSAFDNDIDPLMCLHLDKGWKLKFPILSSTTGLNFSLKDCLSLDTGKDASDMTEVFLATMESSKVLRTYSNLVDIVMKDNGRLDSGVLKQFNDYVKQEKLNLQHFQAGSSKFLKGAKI

Mrs1 [2] = target: T1, Mrs1; experiment: filter binding; 8 mM MgCl2; Hill ~1.5; Filter partitioning (nitrocellulose/Hybond), RNA folded in its own buffer (composition not given), 30 min at 37 C with Mrs1; SL and B5 at 8 mM MgCl2; RNA ~0.5 nM (large) or ~0.1 nM (SL, B5); settings: protein: recombinant, chain copies: 2, label: internal 32P

**Q.** For Azoarcus group I intron RNA, which K half (Mrs1 [1]; Hill 1.8, Filter partitioning (nitrocellulose/Hybond)) is on record?
**A.** 3 nM

**Q.** For RNase P specificity domain RNA, which K half (Mrs1 [1]; Hill 2.0, Filter partitioning (nitrocellulose/Hybond)) is on record?
**A.** 230 nM

**Q.** For bI3 group I intron RNA, which K half (Mrs1 [1]; Hill 2.2, Filter partitioning (nitrocellulose/Hybond)) is on record?
**A.** 9.7 nM

B1: SL RNA (structured_RNA)
RNA: GGCUGACGAAGCGGUGCAGUGCUGUUUCAGCACUGCACCGCUUCGUCAGCC
**Q.** B1 was tested. Which “apparent K (half saturation)” value (Mrs1 [2]; hairpin, 24 bp) did it give?
**A.** 1300 nM

B2: B5 RNA (structured_RNA)
RNA: GGCUGACGAAGCGGUGCAGUGCUGUUUCAGCACUGCACCGAAAAACUUCGUCAGCC
**Q.** Which “apparent K (half saturation)” value (Mrs1 [2]; hairpin with 5 nt bulge) does the source give for B2 here?
**A.** ~500 nM
